# Data published in US20130035256A1, “Chimeric Polypeptides Useful in Proximal and Dynamic High-Throughput Screening Methods” (ADDEX PHARMA SA, priority 2010, published 2013).
# What was measured:
# [1] = biological target: T1, M1R-GLG3 (human M1 receptor) (Homo sapiens, UniProt P11229); test: BRET assay, HEK cells transiently co-transfected with M1R-GLG3 and a Gγ construct; assay type: cell-based; design: key to the marks not given beside the values; settings: cells coexpressing M1R-GLG3 and the Gγ construct, exposed to Acetylcholin
# T1 construct: 35; hM1R; RGLG-3; Gαq; 86, 87; FP-Gγ9; 3, 4; 11A, 11B; expressed in transfected cells; host or cells: HEK cells, transient
# T1 sequence (P11229 with tags, fused parts or gaps): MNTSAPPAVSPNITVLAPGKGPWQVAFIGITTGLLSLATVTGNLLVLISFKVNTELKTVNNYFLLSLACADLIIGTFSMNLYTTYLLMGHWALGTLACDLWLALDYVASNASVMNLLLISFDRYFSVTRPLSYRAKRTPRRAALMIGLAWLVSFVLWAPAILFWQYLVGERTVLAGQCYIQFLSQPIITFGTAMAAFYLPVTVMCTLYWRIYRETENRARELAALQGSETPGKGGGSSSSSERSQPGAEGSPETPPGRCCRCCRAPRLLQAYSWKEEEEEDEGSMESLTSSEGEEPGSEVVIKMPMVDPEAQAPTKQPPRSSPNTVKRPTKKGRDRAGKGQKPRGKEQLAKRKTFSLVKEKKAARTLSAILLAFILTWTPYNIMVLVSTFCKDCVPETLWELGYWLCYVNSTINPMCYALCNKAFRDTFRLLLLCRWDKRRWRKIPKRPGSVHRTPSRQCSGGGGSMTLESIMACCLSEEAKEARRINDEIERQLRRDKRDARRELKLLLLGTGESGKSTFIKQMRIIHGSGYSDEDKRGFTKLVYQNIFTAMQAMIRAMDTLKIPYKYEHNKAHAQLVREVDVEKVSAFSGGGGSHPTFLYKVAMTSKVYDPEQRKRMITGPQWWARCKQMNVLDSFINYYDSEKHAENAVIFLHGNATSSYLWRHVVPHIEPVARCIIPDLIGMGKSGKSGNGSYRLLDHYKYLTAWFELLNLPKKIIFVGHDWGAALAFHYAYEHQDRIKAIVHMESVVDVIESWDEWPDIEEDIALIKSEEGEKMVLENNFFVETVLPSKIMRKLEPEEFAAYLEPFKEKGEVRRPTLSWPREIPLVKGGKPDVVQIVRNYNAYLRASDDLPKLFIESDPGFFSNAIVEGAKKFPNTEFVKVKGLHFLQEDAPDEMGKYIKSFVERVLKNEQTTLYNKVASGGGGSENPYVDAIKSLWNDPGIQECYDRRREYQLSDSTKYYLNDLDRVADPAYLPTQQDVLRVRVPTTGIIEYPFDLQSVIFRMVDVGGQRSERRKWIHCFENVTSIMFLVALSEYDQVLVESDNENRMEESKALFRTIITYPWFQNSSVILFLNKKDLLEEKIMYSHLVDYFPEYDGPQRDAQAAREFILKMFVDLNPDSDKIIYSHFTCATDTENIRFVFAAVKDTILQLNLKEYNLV
# [2] = biological target: T2, A2AR-RGL (human A2A receptor) (Homo sapiens, UniProt P29274); test: BRET assay, HEK cells transiently co-transfected with A2AR-RGL and a Gγ construct; assay type: cell-based; design: key to the marks not given beside the values; settings: cells coexpressing A2AR-RGL and the Gγ construct, exposed to Adenosine
# T2 construct: ID; NOs; expressed in transfected cells; host or cells: HEK cells, transient
# [3] = biological target: T3, GLP1R-L-G (human GLP-1 receptor) (Homo sapiens, UniProt P43220); test: BRET assay, HEK cells transiently co-transfected with GLP1R-L-G and a Gγ construct; assay type: cell-based; settings: cells coexpressing GLP1R-L-G and the Gγ construct, exposed to GLP-1
# T3 construct: ID; expressed in transfected cells; host or cells: HEK cells, transient
# [4] = biological target: T4, GIPR-L-G (human GIP receptor) (Homo sapiens, UniProt P48546); test: BRET assay, HEK cells transiently co-transfected with GIPR-L-G and a Gγ construct; assay type: cell-based; settings: cells coexpressing GIPR-L-G and the Gγ construct, exposed to GIP
# T4 construct: ID; NOs; expressed in transfected cells; host or cells: HEK cells, transient
# [5] = biological target: T5, GCGR-RLG (glucagon receptor) (Homo sapiens, UniProt P47871); test: BRET assay, HEK cells transiently co-transfected with GCGR-RLG and a Gγ construct; assay type: cell-based; design: key to the marks not given beside the values; settings: cells coexpressing GCGR-RLG and the Gγ construct, exposed to Glucagon
# T5 construct: 39; GCGR; RLG; Gαs; 94, 95; FP-Gγ9; 3, 4; 15; expressed in transfected cells; host or cells: HEK cells, transient
# [6] = biological target: T6, M4R-GLG2 (human muscarinic acetylcholine receptor M4) (Homo sapiens, UniProt P08173); test: BRET assay, HEK cells transiently co-transfected with M4R-GLG2 and a Gγ construct; assay type: cell-based; design: key to the marks not given beside the values; settings: cells coexpressing M4R-GLG2 and the Gγ construct, exposed to ACh
# T6 construct: ID; NOs; expressed in transfected cells; host or cells: HEK cells, transient
# [7] = biological target: T7, GHSR-RLG (hGHSR) (Homo sapiens, UniProt Q92847); test: BRET assay, HEK cells transiently co-transfected with GHSR-RLG and a Gγ construct; assay type: cell-based; design: key to the marks not given beside the values; settings: cells coexpressing GHSR-RLG and the Gγ construct, exposed to Ghrelin
# T7 construct: 37; hGHSR; RLG; Gαq; 90, 91; FP-Gγ9; 3, 4; 13; expressed in transfected cells; host or cells: HEK cells, transient
# [8] = biological target: T8, M4R RGLG-2 with Gαo C351S (Homo sapiens, UniProt P08173+P09471, C351S); test: BRET assay, chimeric M4R with PTX-insensitive mutant (C351S) of Gαo in the RGLG-2 fusion construct; assay type: cell-based; settings: same conditions as FIG. 10B
# T8 construct: ID; NOs; expressed in transfected cells
# Experimental: Cells lines were prepared as described above (Examples 13-34).
# [9] = biological target: human M1 receptor (M1R) RGLG-3 (Homo sapiens, UniProt P11229)
# Experimental: Cells co-express a construct comprising a human M1 receptor (M1R) fused to a split Gαq protein harboring a luminescent protein (construct RGLG-3, FIG. 2C, Table 6) and the FP-Gγ9 construct (as above).
# 5 or 10 minutes after the addition of coelenterazine H to the cells, the read plate is placed in the FLIPR tetra and the measurement begins.
# A second plate is a compound plate, containing a mix of an agonist at its EC20 or EC80 and candidate agents to be tested if the protocol run on the FLIPR tetra is a one-addition (or co-addition) protocol (as in FIGS. 3A, 3B, 4, 5A, 6, 7B, 7C, 10B, 10C, 11B, 13, 14, 19 and 20). Alternatively, a two-addition protocol can be run on the FLIPR tetra, containing two compound plates, of which the first one usually contains different candidate agents and the second one an agonist at its EC20 or EC80 (as in FIGS. 5B, 5C, 7A, 9, 10A, 11A, 12, 15, 16, and 18). […]
# The camera is adjusted in such a way that the gain is set to a maximum of 28,000× and the shutters are opened 100%. […] The read interval (emission filter 1, emission filter 2) is adjusted to the minimal value that results from the addition of the two exposure times (=2×0.1 to 3 seconds) plus the time needed to move the filters from position 1 to position 2 (0.3 sec), resulting in a maximal read frequency of 0.5 seconds (2 Hz). […]
# [10] = biological target: T9, chimeric M4R (RGLG-2) (Homo sapiens, UniProt P08173); test: BRET assay of the invention, cells co-expressing chimeric M4R (RGLG-2) and FP-Gγ9; assay type: cell-based; settings: cells incubated over night with 100 ng/ml PTX
# T9 construct: ID; NOs; expressed in transfected cells
# Experimental: The same cells as described for FIG. 10 A were used. […] The decrease of the signal below baseline in the PTX-treated condition confirms a constitutive activity that has been described for the M4R. […]
# A typical experiment has the following sequence.
# The assay of the present invention was compared with a state of the art calcium based assay. […] In calcium-based assay, a calcium flux is measured in cells co-expressing recombinant M4R and modified Gαq. In the assay in accordance with the present invention, BRET in measured in cells co-expressing a chimeric M4R according to RGLG-2 (construct and cell-line from FIG. 2C, Table 6) and FP-Gγ9 (as described in FIG. 10A). The data represent mean values and they are normalized to the maximal effect of the orthosteric agonist after the subtraction of the basal values.
# T3 sequence (P43220 with tags, fused parts or gaps): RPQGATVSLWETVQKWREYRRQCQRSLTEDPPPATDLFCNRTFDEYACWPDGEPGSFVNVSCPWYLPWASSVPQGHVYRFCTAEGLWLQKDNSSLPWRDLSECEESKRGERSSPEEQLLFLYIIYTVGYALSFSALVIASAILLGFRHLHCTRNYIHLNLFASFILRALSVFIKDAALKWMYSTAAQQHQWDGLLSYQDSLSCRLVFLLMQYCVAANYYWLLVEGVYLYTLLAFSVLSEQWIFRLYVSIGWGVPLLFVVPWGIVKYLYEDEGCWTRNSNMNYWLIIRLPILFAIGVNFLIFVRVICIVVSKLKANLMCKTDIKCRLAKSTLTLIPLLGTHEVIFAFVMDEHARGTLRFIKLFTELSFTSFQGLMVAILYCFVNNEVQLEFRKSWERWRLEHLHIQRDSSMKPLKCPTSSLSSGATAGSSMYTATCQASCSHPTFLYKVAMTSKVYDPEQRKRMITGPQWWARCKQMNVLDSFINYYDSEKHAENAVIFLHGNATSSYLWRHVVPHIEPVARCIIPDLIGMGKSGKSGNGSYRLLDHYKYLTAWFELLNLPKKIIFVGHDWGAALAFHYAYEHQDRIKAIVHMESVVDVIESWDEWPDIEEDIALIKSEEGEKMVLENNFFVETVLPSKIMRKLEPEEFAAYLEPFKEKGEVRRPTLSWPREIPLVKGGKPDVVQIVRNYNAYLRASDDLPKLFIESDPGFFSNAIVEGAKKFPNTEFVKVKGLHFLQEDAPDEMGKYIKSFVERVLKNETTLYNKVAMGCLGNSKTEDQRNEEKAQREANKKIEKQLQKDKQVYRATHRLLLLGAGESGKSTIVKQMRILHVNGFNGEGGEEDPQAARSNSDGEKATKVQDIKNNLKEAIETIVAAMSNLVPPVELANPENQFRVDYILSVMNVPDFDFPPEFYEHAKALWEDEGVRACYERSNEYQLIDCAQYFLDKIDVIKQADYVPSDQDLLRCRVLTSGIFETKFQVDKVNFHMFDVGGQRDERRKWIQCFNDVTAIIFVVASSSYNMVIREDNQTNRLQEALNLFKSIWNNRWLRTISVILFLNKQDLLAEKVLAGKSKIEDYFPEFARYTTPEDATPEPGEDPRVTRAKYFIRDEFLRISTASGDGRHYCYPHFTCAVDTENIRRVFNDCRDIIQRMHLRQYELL
# T6 sequence (P08173 with tags, fused parts or gaps): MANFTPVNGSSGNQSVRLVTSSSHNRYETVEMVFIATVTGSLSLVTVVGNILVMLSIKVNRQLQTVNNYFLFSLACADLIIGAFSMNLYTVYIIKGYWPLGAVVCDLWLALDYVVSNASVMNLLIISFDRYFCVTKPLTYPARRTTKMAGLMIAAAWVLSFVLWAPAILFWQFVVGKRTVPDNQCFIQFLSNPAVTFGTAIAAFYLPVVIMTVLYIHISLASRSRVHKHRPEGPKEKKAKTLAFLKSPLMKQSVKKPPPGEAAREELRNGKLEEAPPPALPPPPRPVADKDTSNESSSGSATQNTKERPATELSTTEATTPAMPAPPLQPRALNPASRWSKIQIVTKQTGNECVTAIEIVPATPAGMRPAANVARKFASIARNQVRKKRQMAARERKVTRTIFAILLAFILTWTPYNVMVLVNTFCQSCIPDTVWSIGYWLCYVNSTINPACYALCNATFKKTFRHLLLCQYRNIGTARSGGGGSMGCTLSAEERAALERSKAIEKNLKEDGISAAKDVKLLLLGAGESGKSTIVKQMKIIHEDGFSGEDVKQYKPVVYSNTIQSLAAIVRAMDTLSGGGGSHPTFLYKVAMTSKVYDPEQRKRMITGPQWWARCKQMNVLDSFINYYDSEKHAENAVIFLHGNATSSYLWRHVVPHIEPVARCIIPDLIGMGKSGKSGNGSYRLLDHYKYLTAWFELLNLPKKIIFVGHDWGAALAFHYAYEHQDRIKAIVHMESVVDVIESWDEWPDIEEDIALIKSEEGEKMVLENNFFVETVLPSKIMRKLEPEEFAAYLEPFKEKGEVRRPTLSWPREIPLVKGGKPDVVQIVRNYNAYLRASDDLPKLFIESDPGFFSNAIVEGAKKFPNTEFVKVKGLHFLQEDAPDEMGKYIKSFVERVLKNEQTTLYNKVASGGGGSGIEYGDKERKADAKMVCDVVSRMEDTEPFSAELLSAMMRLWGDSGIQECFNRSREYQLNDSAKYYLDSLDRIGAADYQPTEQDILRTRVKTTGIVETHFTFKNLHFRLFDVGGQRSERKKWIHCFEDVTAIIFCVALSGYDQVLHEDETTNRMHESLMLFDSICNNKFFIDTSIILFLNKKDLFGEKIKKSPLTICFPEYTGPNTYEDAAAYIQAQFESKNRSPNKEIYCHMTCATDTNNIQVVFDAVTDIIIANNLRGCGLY
# T9 sequence (P08173 with tags, fused parts or gaps): as above
# T7 sequence (Q92847 with tags, fused parts or gaps): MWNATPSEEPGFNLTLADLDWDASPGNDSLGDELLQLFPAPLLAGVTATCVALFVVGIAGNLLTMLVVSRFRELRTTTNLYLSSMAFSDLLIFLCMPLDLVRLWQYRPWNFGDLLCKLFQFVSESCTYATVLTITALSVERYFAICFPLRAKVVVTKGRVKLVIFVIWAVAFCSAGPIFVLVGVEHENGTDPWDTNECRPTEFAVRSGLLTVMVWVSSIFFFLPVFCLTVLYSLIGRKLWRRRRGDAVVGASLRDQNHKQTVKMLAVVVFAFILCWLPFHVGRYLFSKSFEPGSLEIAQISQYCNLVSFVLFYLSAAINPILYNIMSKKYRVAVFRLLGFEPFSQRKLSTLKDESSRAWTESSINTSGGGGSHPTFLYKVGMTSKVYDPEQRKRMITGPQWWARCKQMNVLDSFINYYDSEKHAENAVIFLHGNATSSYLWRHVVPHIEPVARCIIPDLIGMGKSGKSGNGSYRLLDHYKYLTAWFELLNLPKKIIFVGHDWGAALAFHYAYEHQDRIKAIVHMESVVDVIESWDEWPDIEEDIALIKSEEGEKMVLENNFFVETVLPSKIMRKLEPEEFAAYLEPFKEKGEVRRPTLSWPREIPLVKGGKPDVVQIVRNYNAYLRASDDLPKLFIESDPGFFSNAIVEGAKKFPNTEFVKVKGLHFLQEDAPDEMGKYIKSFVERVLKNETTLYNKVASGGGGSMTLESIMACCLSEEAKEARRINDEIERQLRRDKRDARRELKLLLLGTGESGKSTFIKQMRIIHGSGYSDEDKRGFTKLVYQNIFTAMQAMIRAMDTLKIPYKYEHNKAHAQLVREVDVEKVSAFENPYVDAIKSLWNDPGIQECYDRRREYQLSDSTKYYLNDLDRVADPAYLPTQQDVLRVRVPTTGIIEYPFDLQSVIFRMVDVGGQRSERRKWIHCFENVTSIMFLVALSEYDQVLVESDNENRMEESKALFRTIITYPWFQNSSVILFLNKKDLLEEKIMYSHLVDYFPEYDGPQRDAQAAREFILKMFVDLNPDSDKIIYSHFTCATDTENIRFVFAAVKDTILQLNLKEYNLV
# T2 sequence (P29274 with tags, fused parts or gaps): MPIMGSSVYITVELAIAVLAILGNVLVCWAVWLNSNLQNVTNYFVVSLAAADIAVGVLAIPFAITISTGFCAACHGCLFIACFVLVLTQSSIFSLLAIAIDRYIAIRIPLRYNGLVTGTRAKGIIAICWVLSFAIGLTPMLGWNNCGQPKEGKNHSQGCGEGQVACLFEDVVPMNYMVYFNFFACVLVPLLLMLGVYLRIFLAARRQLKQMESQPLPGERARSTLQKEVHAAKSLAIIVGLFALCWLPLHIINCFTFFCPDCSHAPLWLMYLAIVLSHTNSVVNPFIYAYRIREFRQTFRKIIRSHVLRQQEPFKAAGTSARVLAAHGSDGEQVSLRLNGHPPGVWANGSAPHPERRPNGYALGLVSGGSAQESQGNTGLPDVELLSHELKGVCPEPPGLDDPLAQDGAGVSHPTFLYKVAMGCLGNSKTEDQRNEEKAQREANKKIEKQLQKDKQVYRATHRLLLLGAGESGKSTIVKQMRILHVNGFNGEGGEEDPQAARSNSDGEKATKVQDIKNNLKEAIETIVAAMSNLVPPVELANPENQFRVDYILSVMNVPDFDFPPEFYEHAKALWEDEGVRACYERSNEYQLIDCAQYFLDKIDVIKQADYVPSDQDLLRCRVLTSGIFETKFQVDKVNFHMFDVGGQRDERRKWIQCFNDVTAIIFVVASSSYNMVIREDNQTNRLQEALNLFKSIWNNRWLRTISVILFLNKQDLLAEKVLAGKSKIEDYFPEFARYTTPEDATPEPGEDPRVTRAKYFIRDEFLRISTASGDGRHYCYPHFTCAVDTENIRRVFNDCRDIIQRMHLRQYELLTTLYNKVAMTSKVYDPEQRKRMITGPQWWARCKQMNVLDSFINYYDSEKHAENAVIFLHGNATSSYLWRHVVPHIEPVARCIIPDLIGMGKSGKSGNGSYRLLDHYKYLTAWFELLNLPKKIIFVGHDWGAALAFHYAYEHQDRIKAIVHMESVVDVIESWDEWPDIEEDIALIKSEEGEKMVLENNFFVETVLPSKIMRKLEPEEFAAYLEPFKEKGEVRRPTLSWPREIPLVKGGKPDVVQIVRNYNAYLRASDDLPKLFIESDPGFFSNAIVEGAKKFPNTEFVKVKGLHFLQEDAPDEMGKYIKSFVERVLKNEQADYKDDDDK
Substance,HTS compat. [1],HTS compat. [2],HTS compat. [3],HTS compat. [4],HTS compat. [5],HTS compat. [6],HTS compat. [7],"effect on BRET signal changes in response to Ach, C351S Gαo mutant [8]",effect on BRET signal changes in response to Ach [9],effect on BRET signal changes in response to Ach [10]
"FP-Gγ9: fusion protein of yellow fluorescent protein YPet and human G-protein gamma9, SEQ. ID. NOs. 3, 4",++,++,++,++,++,++,++,–,–,–
PTX,–,–,–,–,–,–,–,rescued by the C351S substitution,no effect on the BRET signal changes,effectively blocks the BRET signal changes
